# Assay results published in the RNAGym collection of RNA variant scans (doi:10.1073/pnas.2313332121).
# This sample holds only a part of the variants without activity.
# B1: TPR 5TU (parent)
# chain: GGAUCUUCUCGAUCUAACAAAAAAGACAAAUCUGCCACAAAGCUUGAGAGCAUCUUCGGAUGCAGAGGCGGCAGCCUUCGGUGGCGCGAUAGCGCCAACGUUCUCAACUAUGACACGCAAAACGCGUGCUCCGUUGAAUGGAGUUUAUCAUG
# Variants of: B1
# Test: polymerase ribozyme fitness, log enrichment relative to wild type (log ratio); higher = more active; in vitro selection for triplet polymerase activity
# Method in brief: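 Genotype fitness is the logarithm of its enrichment divided by wild-type enrichment, using inverse-variance-weighted averages of replicates. That logarithm is base 2. Enrichment was measured by Illumina sequencing of input and output libraries from one triplicate in vitro selection round, with frozen incubation at −7 °C, on PCR-built, transcribed mutant libraries of each subunit of a heterodimeric triplet polymerase ribozyme, retaining genotypes with ≥10 input reads and ≥1 read per output.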
row,Variant,polymerase ribozyme fitness (log ratio)
1,U53C G86A C95U,-1.78
2,C54U G59U,0.271
3,C54G C96U C123G,-1.53
4,C54A A97U,-1.79
5,C54U C87U C99U U135C,-3.26
6,C54A C116U U139A,-4.11
7,C54A G58C,-1.45
8,C54A C85A C105A,≤ -4.2
9,U53G C93A C103G,≤ -4.2
10,U53G C54A C95U U104C A106U C118U C149G,≤ -4.2
11,U53C C93G C99G C118A G126A U146G,≤ -4.2
12,C54U C93U C96G U135A,-3.57
13,U53G C72G C108G C116A,≤ -4.2
14,C54U C105A C131G,≤ -4.2
15,U53G U90G G100A G124A U144C,≤ -4.2
16,C54A C93U,-2.59
17,U53A U56G C57U A73G C87A G143A,≤ -4.2
18,C54A C85G C95G C114A U134G,≤ -4.2
19,C54U A138G,-3.19
20,U53G G94U A98C,-2.12
21,C54U A60G C95U,-0.803

row,Variant,polymerase ribozyme fitness (log ratio)
1,C54G G68C G80A G94U A98G,≤ -4.2
2,C54G U55A G70U G81C C87U G94C C96A C105A A120C,≤ -4.2
3,C54A G92A G126U,-3.3
4,C54A U55A U56A C96A G141C,-4.08
5,U53G U55A U78A C93U A142C U148C,≤ -4.2
6,C54G U55A G94U A98C U146G,-3.37
7,C54A U101G U134C U139G U144A,-1.85
8,C54U A107U U111G U135A U146C,-4
9,C54U C96U C118U,-0.868
10,C54U G58A G92A U145A,-3.35
11,U53A U55A G62C,-2.35
12,C54A A91U G100A G141C,≤ -4.2
13,U53A U61A U109G,-2.25
14,C54A C57A C87A A89G,≤ -4.2
15,C54G C87U,-3.59
16,C54G C87A,≤ -4.2
17,C54A U56G A110U U145G,≤ -4.2
18,C54A C85G U102G,≤ -4.2
19,U53G C87U A120C,-2.07
20,C54U C87G A142C,≤ -4.2
21,C54A C57G U90G U139A G140U U146A,≤ -4.2

row,Variant,polymerase ribozyme fitness (log ratio)
1,C54U C99U,-0.322
2,C54G C103A G140C,≤ -4.2
3,C54G G74C G81A G88C,≤ -4.2
4,C54A C69U,-4.12
5,U53G C54U C96U A98G G133C G141U,-4.03
6,C54U C125G,-1.05
7,C54A C87A C114A C116G,≤ -4.2
8,U53A U55G G65C C85G C87U C103U C131A,≤ -4.2
9,U53A U56G,-1.11
10,U53A U56A,-2.45
11,U53G G84U C96G,≤ -4.2
12,C54U C57G G84U C85U C132U,-3.94
13,C54G G65U A73U C87A A106U G140A G143A,≤ -4.2
14,C54G G83C A97U A98U,-2.8
15,C54G C57A G74A A91C C95U C132A,≤ -4.2
16,C54U C72U,-0.468
17,C54U C69A U144C,-3.89
18,C54U C57G C87A G128A,≤ -4.2
19,C54G C76G A89U C93A A113G C116U,≤ -4.2
20,C54G C79U G94C C96U A150G,≤ -4.2
21,C54A C105U,-0.396

row,Variant,polymerase ribozyme fitness (log ratio)
1,C54U G83U C85A U90G,≤ -4.2
2,C54U C149U,-0.259
3,U53G C95U,-3.07
4,C54G C85U C99G,-3.45
5,C54A C69U U144C,-3.51
6,C54A C69A G84A G88A,≤ -4.2
7,U53A U55A C79U A98U,≤ -4.2
8,C54A G84A A142C,-4.19
9,C54G U56A C57A G81U C93U,-0.912
10,C54G A66C G70C G100C,≤ -4.2
11,C54U G65U A73U A91U C108G,≤ -4.2
12,C54U G59C A60G A122U,0.186
13,C54A C79A C87U U144C A150G U151A,≤ -4.2
14,C54U C87U A115U,-1.85
15,C54U C93U,-1.99
16,C54U C93G,-3.72
17,U53C G83C C116G,-3.05
18,U53G G59A,-1.37
19,U53G C96A U104G,-3.96
20,C54U G84A U102G,-4.14
